We go through 2 molecules from CN112851810A (BEIJING GUANGWEI BIOTECHNOLOGY CO LTD, dated 2021).

The assay has as its target T1, 人CD20 (human CD20) (human, UniProt P11836 1-297, limits assumed).
T1 construct: also called 人CD20蛋白; 抗原
T1 sequence (looked up): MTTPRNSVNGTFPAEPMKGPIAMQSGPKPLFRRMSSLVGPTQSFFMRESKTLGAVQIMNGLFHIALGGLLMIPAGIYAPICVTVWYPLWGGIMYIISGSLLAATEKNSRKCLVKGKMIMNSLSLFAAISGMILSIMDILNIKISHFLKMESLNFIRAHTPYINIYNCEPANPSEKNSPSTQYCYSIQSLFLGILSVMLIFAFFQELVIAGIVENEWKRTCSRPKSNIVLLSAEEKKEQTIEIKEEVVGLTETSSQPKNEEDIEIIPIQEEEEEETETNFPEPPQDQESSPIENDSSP
The assay can be described thus: SPR (CM5 chip, antibody captured by anti-human capture antibody, antigen as analyte from 10 nM).

B1: Rituximab (antibody, V domains shown)
VH: QVQLQQPGAELVKPGASVKMSCKASGYTFTSYNMHWVKQTPGRGLEWIGAIYPGNGDTSYNQKFKGKATLTADKSSSTAYMQLSSLTSEDSAVYYCARSTYYGGDWYFNVWGAGTTVTVSA
VL: QIVLSQSPAILSASPGEKVTMTCRASSSVSYIHWFQQKPGSSPKPWIYATSNLASGVPVRFSGSGSGTSYSLTISRVEAEDAATYYCQQWTSNPPTFGGGTKLEIK
As usually defined, the Kd is a measure of binding affinity in units of concentration. Higher therefore signals weaker binding. For orientation: koff means the first-order rate constant of dissociation. What is called kon is a measure of how fast the partners come together. A high value points to faster complex formation. Turning to B1, the Kd came out at 5.46 nM, the koff came out at 0.000345 s⁻¹ and the kon is 63100 M⁻¹ s⁻¹.

B2: h12H7-IgG1 (antibody, V domains shown)
VH: QVQLVQSGAEVKKPGASVKVSCKASDYTFTSYAGKWVRQAPGQGLEWIGAIPTKGNDTSYNQFLKGRVTMTADTSTSTVYMELSSLRSEDTAVYYCAKGIDGCNFDYWGQGTTVTVSS
VL: DIQMTQSPSSVSASVGDRVTITCKASQRVATGVAWYQQKPGKAPKALIYSAIGNRTGVPSRFSGSGSGTDFTLTISSLQPEDFATYYCQQASKIDAYPTFGQGTKLEIK
With B2, binding was characterised by a dissociation constant (Kd) of 0.307 nM, the off-rate constant (koff) turned out to be 4.21e-05 s⁻¹ and the kon came out at 137000 M⁻¹ s⁻¹.
